From patent US20040018971A1 (published 2004)
Where no end group is shown, it is not given here. [ ]: non-standard residue; d: D form. Abu = CC[C@H](N)C(=O)O

Key:
[1] = molecular target: T1, HLA-A*0301 (human); test: inhibition of 125I-labelled probe peptide binding to purified HLA-A*0301, gel filtration; ratio to standard peptide 941.12 [..] (11 nM); the negative sign is not explained
T1 construct: also called HLA-A3

[2] = molecular target: T2, HLA-DRB1*0301 (human); test: competition with 125I-labelled standard peptide, purified HLA-DR, gel filtration
T2 construct: purified MHC class II molecule; also called DR3

[3] = molecular target: T3, HLA-A*0201 (human); test: competition with 125I probe peptide for purified HLA
T3 construct: also called HLA-A2.1

[4] = molecular target: HLA-A*0202 (human); test: as above
[5] = molecular target: HLA-A*0206 (human); test: as above
[6] = molecular target: HLA-A*6802 (human); test: as above
[7] = molecular target: HLA-A*0203 (human); test: as above
[8] = molecular target: HLA-DR3 (DRB1*0301), purified HLA class II molecule (human); test: competition with 125I-labelled probe peptide, purified HLA-DR
[9] = molecular target: T4, HLA-DR1 (DRB1*0101) (human); test: competition binding assay, purified HLA, 125I-labelled probe peptide, gel filtration
T4 construct: purified HLA class II molecule

[10] = molecular target: T5, HLA-DR4w4 (DRB1*0401) (human); test: as above
T5 construct: purified HLA class II molecule

[11] = molecular target: T6, HLA-DR7 (DRB1*0701) (human); test: as above
T6 construct: purified HLA class II molecule

[12] = molecular target: T7, HLA-DRB1*0101 (human); test: inhibition of 125I probe peptide binding to purified HLA-DR, gel filtration
T7 construct: Purified HLA molecule; also called DR1

[13] = molecular target: T8, HLA-DRB1*0701 (human); test: competition with 125I probe peptide, purified HLA
T8 construct: also called DR7

[14] = molecular target: T7, HLA-DRB1*0101; test: inhibition of 125I probe peptide binding to purified HLA-DR, gel filtration; remark: listed apart in the source
[15] = molecular target: T9, HLA-DRB1*0401 (human); test: as above
T9 construct: Purified HLA molecule; also called DR4w4

[16] = molecular target: T10, HLA-DRB1*1501 (human); test: as above
T10 construct: Purified HLA molecule; also called DR2w2β1

[17] = molecular target: T11, HLA-DRB5*0101 (human); test: as above
T11 construct: Purified HLA molecule; also called DR2w2β2

[18] = molecular target: T12, HLA-DRB1*1302 (human); test: as above
T12 construct: Purified HLA molecule; also called DR6w19

[19] = molecular target: T13, HLA-DRB1*0802 (human); test: as above
T13 construct: Purified HLA molecule; also called DR8w2

[20] = molecular target: T14, HLA-DRB1*0101 (human); test: competition with 125I probe peptide, purified HLA
T14 construct: also called DR1

[21] = molecular target: T15, HLA-A*0201 (human); test: competition for purified HLA vs 125I-labelled probe peptide, gel filtration
T15 construct: also called HLA-A2.1

[22] = molecular target: T16, HLA-A*0202 (human); test: as above
T16 construct: purified HLA class I molecule

[23] = molecular target: T17, HLA-A*0203 (human); test: as above
T17 construct: purified HLA class I molecule

[24] = molecular target: T18, HLA-A*0206 (human); test: as above
T18 construct: purified HLA class I molecule

[25] = molecular target: T19, HLA-A*6802 (human); test: as above
T19 construct: purified HLA class I molecule

[26] = molecular target: T20, HLA-DRB1*0301 (human); test: competition with 125I-labeled standard peptide, purified HLA-DR, gel filtration
T20 construct: also called DR3

[27] = molecular target: T21, HLA-DRB1*0401 (human); test: competition with 125I probe peptide, purified HLA
T21 construct: also called DR4w4

[28] = molecular target: HLA-A*0301 (human); test: competition with 125I-labelled standard peptide for purified HLA; gel filtration
[29] = molecular target: HLA-A*3101 (human); test: as above
[30] = molecular target: HLA-A*3301 (human); test: as above
[31] = molecular target: HLA-A*6801 (human); test: as above
[32] = molecular target: T22, HLA-A*0201 (human); test: inhibition of 125I-labeled probe peptide binding to purified HLA, gel filtration; relative to standard peptide
T22 construct: the construct is not described; also called HLA-A2.1

[33] = molecular target: T23, HLA-DRB1*0701 (human); test: inhibition of 125I probe peptide binding to purified HLA-DR, gel filtration
T23 construct: Purified HLA molecule; also called DR7

[34] = molecular target: T24, HLA-DRB5*0101 (human); test: competition with 125I-labelled standard peptide, purified HLA-DR, gel filtration
T24 construct: purified MHC class II molecule; also called DR2w2β2

[35] = molecular target: T25, HLA-DRB1*0101 (human); test: as above
T25 construct: purified MHC class II molecule; also called DR1

[36] = molecular target: T26, HLA-DRB1*0401 (human); test: as above
T26 construct: purified MHC class II molecule; also called DR4w4

[37] = molecular target: T27, HLA-DRB1*0802 (human); test: as above
T27 construct: purified MHC class II molecule; also called DR8w2

[38] = molecular target: T28, HLA-DRB1*1302 (human); test: as above
T28 construct: purified MHC class II molecule; also called DR6w19

[39] = molecular target: T29, HLA-DRB1*1501 (human); test: as above
T29 construct: purified MHC class II molecule; also called DR2w2β1

[40] = molecular target: HLA-A*1101 (human); test: competition with 125I-labelled standard peptide for purified HLA; gel filtration

B1: HER2/neu peptide, position 1162, 10 amino acids (peptide)
peptide: PAGATLERPK
notes: Synthetic peptide; also called Her2/neu.1162 (10-mer)
- relative binding ratio (IC50 of standard peptide / IC50 of test peptide) [1]: -0.0002

Binder: YRSLLEDDDMGDLVD [Her2/neu.1005]
- IC50 [2]: 4.76 µM

Binder: AT[Abu]RWGLLV [Her2/neu.5.T2B3V9 ATBRWGLLV]
- IC50 [3]: 16.7 µM
- IC50 [4]: 215 nM
- IC50 [5]: 2180 nM
- IC50 [6]: 1.74 µM

Binder: AV[Abu]RWGLLV [Her2/neu.5V2B3V9 AVBRWGLLV]
- IC50 [3]: 10 µM
- IC50 [4]: 215 nM
- IC50 [7]: 141 nM
- IC50 [5]: 2180 nM
- IC50 [6]: 4.71 µM

Binder: AM[Abu]RWGLLV [Her2/neu.5M2B3V9 AMBRWGLLV]
- IC50 [3]: 0.036 µM
- IC50 [4]: 473 nM
- IC50 [7]: 16 nM
- IC50 [5]: 726 nM

Binder: TAPLQPEQLQVFETL (also called Her2/neu.389) [HER2/neu DR supermotif exemplary 15-mer TAPLQPEQLQVFETL (position 389)]
- relative binding ratio [8]: 0.0023 ratio (IC50 standard / IC50 test)

Binder: QGFFCPDPAPGAGGM (also called Her2/neu.1028) [HER2/neu peptide QGFFCPDPAPGAGGM (position 1028)]
- relative binding ratio [9]: -0.0005 ratio to standard peptide
- relative binding ratio [10]: 0.023 ratio to standard peptide
- relative binding ratio [11]: -0.0011 ratio to standard peptide

B2: HER2/neu peptide, position 1173, 10 amino acids (peptide)
peptide: LSPGKNGVVK
notes: Synthetic peptide; also called Her2/neu.1173 (10-mer)
- relative binding ratio (IC50 of standard peptide / IC50 of test peptide) [1]: -0.0002

Binder: QPDVRPQPPSPREGP (Synthetic peptide) [Her2/neu.1142]
- IC50 [12]: 7.14 µM

Binder: QPPICTIDVYMIMVK
- IC50 [13]: 250 nM

Binder: DEAYVMAGVGSPYVS (Synthetic peptide)
- IC50 [14]: 100 nM
- IC50 [15]: 196 nM
- IC50 [16]: 3140 nM
- IC50 [17]: 833 nM
- IC50 [18]: 1750 nM
- IC50 [19]: 860 nM

Binder: TQLFEDNYALAVLDN [Her2/neu.105]
- IC50 [20]: 94 nM
- IC50 [13]: 1560 nM

Binder: SLISAVVGV (analog of Her2/neu.653) [Her2/neu.653.L2V9]
- IC50 [21]: 7.1 nM
- IC50 [22]: 10 nM
- IC50 [23]: 16 nM
- IC50 [24]: 20 nM
- IC50 [25]: 110 nM

Binder: VHTVPWDQLFRNPHQ (also called Her2/neu.477) [HER2/neu DR supermotif exemplary 15-mer VHTVPWDQLFRNPHQ (position 477)]
- relative binding ratio [8]: 0.022 ratio (IC50 standard / IC50 test)

Binder: KVPIKWMALESILRR (Synthetic peptide) [Her2/neu.883]
- IC50 [14]: 2.3 nM
- IC50 [16]: 3.4 nM

B3: HER2/neu DR supermotif exemplary peptide PSGVKPDLSYMPIWK (position 601) (peptide)
peptide: PSGVKPDLSYMPIWK
notes: synthetic 15-mer; also called Her2/neu.601
- relative binding ratio [26]: -0.0027 ratio (standard IC50 / test IC50)

Binder: KEILDEAYVMAGVGS [Her2/neu.765]
- IC50 [27]: 6160 nM

Binder: LVKSPNHVR [Her2/neu.852.R9]
- IC50 [28]: 7.86 µM
- IC50 [29]: 198 nM
- IC50 [30]: 0.107 µM
- IC50 [31]: 50 nM

Binder: QGFFCPDPAPGAGGM [Her2/neu.1028]
- IC50 [27]: 1960 nM

Binder: VLIQRNPQV (analog of Her2/neu.153) [Her2/neu.153.V9]
- IC50 [21]: 55 nM
- IC50 [22]: 768 nM
- IC50 [23]: 135 nM
- IC50 [24]: 385 nM

Binder: KTFGSLAFV (analog of Her2/neu.369) [Her2/neu.369.T2V9]
- IC50 [21]: 35 nM
- IC50 [22]: 13 nM
- IC50 [23]: 1010 nM
- IC50 [25]: 17 nM

Binder: YVLIAHNQV (Synthetic peptide) [HER2/neu peptide, position 83, 9 amino acids]
- relative binding ratio [32]: 0.0005 ratio (IC50 of standard peptide / IC50 of test peptide)

Binder: DEAYVMAGVGSPYVS [Her2/neu.769, listing 1 of 2 here]
- IC50 [20]: 100 nM
- IC50 [27]: 196 nM

B4: HER2/neu DR supermotif exemplary peptide KGPLPTDCCHEQCAA (position 228) (peptide)
peptide: KGPLPTDCCHEQCAA
notes: synthetic 15-mer; also called Her2/neu.228
- relative binding ratio [26]: -0.0027 ratio (standard IC50 / test IC50)

Binder: SLSFLQDIQEVQGYV [Her2/neu.70]
- IC50 [2]: 5.77 µM

Binder: QPPICTIDVYMIMVK (Synthetic peptide)
- IC50 [33]: 250 nM

Binder: QMRILKETELRKVKV [Her2/neu.711]
- IC50 [34]: 34 nM

Binder: YVSRLLGICL (Synthetic peptide) [HER2/neu peptide, position 781, 10 amino acids]
- relative binding ratio [32]: 0.0004 ratio (IC50 of standard peptide / IC50 of test peptide)

Binder: YLIMVKCWMV (analog of Her2/neu.952 (10-mer)) [Her2/neu.952.L2V10]
- IC50 [21]: 13 nM
- IC50 [22]: 56 nM
- IC50 [24]: 18 nM
- IC50 [25]: 84 nM

Binder: DEAYVMAGVGSPYVS [Her2/neu.769, listing 2 of 2 here]
- IC50 [35]: 100 nM
- IC50 [36]: 196 nM
- IC50 [37]: 860 nM
- IC50 [38]: 1750 nM
- IC50 [39]: 3.14 µM
- IC50 [34]: 833 nM

Binder: AVPLDSTFYR [Her2/neu.997.V2]
- IC50 [28]: > 110 µM
- IC50 [40]: 88 nM
- IC50 [29]: 30000 nM
- IC50 [31]: 73 nM

Binder: AVPLDSTFYK [Her2/neU.997.V2K10]
- IC50 [28]: 0.55 µM
- IC50 [40]: 33 nM
- IC50 [29]: 1500 nM
- IC50 [30]: 22.3 µM
- IC50 [31]: 229 nM
